Measurements published in publication PMC7596504, “Molecular mechanism of the MORC4 ATPase activation” (Nature Communications, 2020).

Key:
MORC4 CW domain = target: T1, MORC4 CW domain (Homo sapiens, UniProt Q8TE76); test: 1H,15N HSQC NMR titration of MORC4 CW; assay type: binding
T1 construct: The CW domain (aa 417–475) of MORC4 was cloned into a pGEX 6p-1 vector; GST (N, cleaved yes); made in house; host or cells: E. coli Rosetta2 (DE3) pLysS or BL21 (DE3) RIL
T1 sequence (Q8TE76 417-475): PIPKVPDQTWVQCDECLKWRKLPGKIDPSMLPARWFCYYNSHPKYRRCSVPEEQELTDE
Procedure: NMR experiments were carried out at 298 K on a Varian INOVA 600 and 900 MHz spectrometers. His-tagged MORC4 ATPase (1–411) was expressed and purified as described above and used without cleavage of the tag. NMR samples contained 0.1 mM uniformly ^15N-labeled WT or mutated CW in 20 mM Tris-HCl (pH 7) buffer supplemented with 100 mM NaCl, 5 mM DTT, and 10% D2O. Binding was characterized by monitoring CSPs in the proteins induced by H3 peptides or the ATPase domain. For the CWKRR mutant, NMR experiments were performed in 20 mM Tris-HCl (pH 6.8) buffer supplemented with 150 mM NaCl, 2 mM DTT, and 10% D2O.

NCP147 [1] = test: EMSA with NCP147; assay type: binding; conditions: 5 nM 147 bp fluorescein-labeled NCP, pH 7.5, 4 °C
Procedure: EMSAs were performed by mixing increasing amounts of MORC4 ATPase with 5 nM 147 bp fluorescein-labeled NCP in 25 mM Tris-HCl pH 7.5, 75 mM NaCl, 25 mM Tris-HCl pH 7.5, 0.005% Tween 20, and 10% glycerol buffer in a 12 μL reaction volume. Each sample was incubated at 4 °C for 5 min and then loaded onto a 5% native polyacrylamide gel. Electrophoresis was performed in 0.3× Tris-borate-EDTA (TBE) at 300 V for 90 min. Fluorescein fluorescence images were acquired with a Typhoon Phosphor Imager.

NCP207 = test: Fluorescence polarization binding to NCP207
Procedure: Fluorescence polarization measurements were acquired with a Tecan infinite M1000Pro plate reader by exciting at 470 nm and measuring polarized emission at 519 nm with 5 nm excitation and emission bandwidths. The fluorescence polarization was calculated from the emission polarized parallel and perpendicular to the polarized excitation light. Fluorescence polarization measurements were carried out using increasing concentrations of MORC4 ATPaseCW, ATPase alone, or CW alone with 5 nM 207 bp Fluorescein-labeled NCPs in 15 mM Tris pH 7.5, 75 mM NaCl, 0.00625% Tween 20, and 5 mM dithiothreitol buffer in 30 µL reaction volumes. The samples were loaded into a Corning round bottom black polystyrene plate and incubated at room temperature for 10 min before fluorescence polarization measurements of the samples were taken. The data were then fit to a non-cooperative binding isotherm to determine S1/2 values. Errors represent a S.D. between the S1/2 values based on three runs.
Histone octamers unlabeled or labeled with Cy5 at H2AK119 were prepared as previously described. NCPs were reconstituted by combining octamer with 1.25× excess DNA and performing slow salt dialysis. Free DNA was then separated from fully reconstituted NCPs by sucrose gradient purification. NCPs for fluorescence polarization assays were reconstituted from unlabeled octamer and 207 bp DNA containing the 601 Widom sequence flanked with a 30 bp linker on either side and internally labeled with Fluorescein 27 bp in from the 5′ end. Cy3-Cy5 labeled NCPs for FRET assays were reconstituted with Cy5 labeled octamer plus either 147 bp 601 Widom DNA containing a LexA transcription factor binding site at bases 8–27[34], or 252 bp DNA containing the 601 Widom sequence with a 75 bp linker at the 3′ end, a 30 bp linker at the 5’ end, and a Gal4 transcription factor binding site at bases 8–26 in the 601 Widom sequence. The 147 bp LexA-binding DNA was labeled with Cy3 on the 5′ end, and the 252 bp Gal4-binding DNA was internally labeled with Cy3 34 bp in from the 5′ end.

MORC4 = test: ATPase activity assay (EnzChek Phosphate Assay Kit); assay type: biochemical, human; set-up: Rate of ATP hydrolysis: unit not given here; conditions: for Rate of ATP hydrolysis: no DNA, no peptide
Procedure: To determine whether MORC4 is catalytically active, we produced the ATPase domain of human MORC4 and examined its ability to hydrolyze ATP in enzymatic assays (Fig. 1a–c). Following incubation of the ATPase domain with ATP, 2-amino-6-mercapto-7-methylpurine ribonucleoside and nucleoside phosphorylase, the release of inorganic phosphate generated by the hydrolysis of ATP to ADP was monitored by measuring an increase in absorbance at 360 nm.
The ATPase assays were performed using the EnzChek Phosphate Assay Kit (Invitrogen, item # E6646). The reactions were carried out on 1.0 µM of MORC4 His-ATPase or ATPaseCW (WT and mutants), in the presence and absence of 1 µM 601 DNA or 50 µM of unmodified H3 or H3K4me3 peptide (aa 1–12 of H3) in a buffer containing 50 mM Tris-HCl (pH 7.5), 150 mM NaCl, 1 mM MgCl2, 0.1 mM sodium azide, 200 µM MESG, and 1 U of PNP. In assay with the nucleosome, 0.5 µM of MORC4 ATPaseCW and 0.5 µM NCP167 (Activemotif) were used. The reaction was started by adding 2 mM ATP to the mixture at room temperature, and the release of inorganic phosphate was monitored by measuring the absorbance at 360 nm on a Nanodrop 2000c spectrophotometer (Thermo Scientific). In the presence of inorganic phosphate, produced by the hydrolysis of ATP to ADP, MESG is enzymatically converted to ribose 1-phosphate and […] by PNP, resulting in a shift in the wavelength absorbance from 330 nm for MESG to 360 nm for the product. The rate of ATP self-hydrolysis was measured in parallel. Error was calculated as the S.D. of at least three separate experiments (two in Fig. 4j).

NCP147 [2] = test: Fluorescence polarization binding to NCP147

interaction with CW by chemical shift perturbations (MORC4 CW domain; 15N-labeled WT CW 0.1 mM, pH 7, 100 mM NaCl, 298 K): formation of the large ATPase:CW complex
binding to NCP147 in EMSA (NCP147 [1]): bound to NCP147
increase in interaction with NCP207 relative to NCP147 (NCP207; NCP207 vs NCP147): ~ 5 fold
S1/2 (NCP207; fluorescence polarization, 5 nM NCP207, pH 7.5, 75 mM NaCl, room temperature, 10 min, mean ± S.D. of n = 3): 0.50 ± 0.08 µM
Rate of ATP hydrolysis (MORC4; 1.0 µM protein, 2 mM ATP, pH 7.5, room temperature, absorbance 360 nm, Fig. 1b,c, mean): 0.08049
Rate of ATP hydrolysis (MORC4; Fig. 1b, replicate 4): 0.02158
Rate of ATP hydrolysis (MORC4; Fig. 1b, replicate 5): 0.01439
decrease in binding to NCP147 compared to NCP207 (NCP147 [2]; NCP147 vs NCP207 (peer review file)): 5 fold
S1/2 (NCP147 [2]; fluorescence polarization, pH 7.5, 75 mM NaCl, room temperature, 10 min, mean of n = 3): 2.3 µM
B1: ATPase: ATPase domain (aa 29–411) of human MORC4 (Q8TE76) (protein, UniProt Q8TE76 29-411, looked up, fragment)
chain: GIRLSTMSPRYLQSNSSSHTRPFSAIAELLDNAVDPDVSARTVFIDVEEVKNKSCLTFTDDGCGMTPHKLHRMLSFGFTDKVIKKSQCPIGVFGNGFKSGSMRLGKDALVFTKNGGTLTVGLLSQTYLECVQAQAVIVPIVPFNQQNKKMIITEDSLPSLEAILNYSIFNRENDLLAQFDAIPGKKGTRVLIWNIRRNKNGKSELDFDTDQYDILVSDFDTEEKMTGGVTSELPETEYSLRAFCGILYMKPRMKIFLRQKKVTTQMIAKSLANVEYDTYKPTFTNKQVRITFGFSCKNSNQFGIMMYHNNRLIKSFEKVGCQVKPTRGEGVGVIGVIECNFLKPAYNKQDFEYTKEYRLTINALAQKLNAYWKEKTSQDNFET
competition with H3 peptide for CW (MORC4 CW domain; titration into the CW:H3 complex): disruption of the CW:H3 complex and formation of the complex between CW and the ATPase domain
catalytic (ATPase) activity of the protein (MORC4): possesses little ATP hydrolyzing activity
